The source of these data is paper PMC4975667.

The target in this assay is Human full-length BAX (1–192) wild type, recombinant (human) (UniProt Q07812).

A word on the Kd: it is the constant that tells how readily two partners part at equilibrium. Consider “Human full-length BAX (1–192) wild type, recombinant (from UniProt Q07812 1-192) (natural protein)”, for which the Kd worked out at 32 µM.
